These results are taken from patent US20130337438A1 (JAPAN HEALTH SCIENCES FOUNDATION, published 2013).

In test [1] the target is T1, HPV51 L1/L2-capsid (human papillomavirus type 51, UniProt P26539 1-468; P26536 1-504).
T1 construct: Capsid of co-expressed L1 and L2 from 293FT cells; The pseudovirus is the same capsid with a reporter plasmid; also called L1/L2-capsid of type 51; HPV51 pseudovirus
T1 sequence 1: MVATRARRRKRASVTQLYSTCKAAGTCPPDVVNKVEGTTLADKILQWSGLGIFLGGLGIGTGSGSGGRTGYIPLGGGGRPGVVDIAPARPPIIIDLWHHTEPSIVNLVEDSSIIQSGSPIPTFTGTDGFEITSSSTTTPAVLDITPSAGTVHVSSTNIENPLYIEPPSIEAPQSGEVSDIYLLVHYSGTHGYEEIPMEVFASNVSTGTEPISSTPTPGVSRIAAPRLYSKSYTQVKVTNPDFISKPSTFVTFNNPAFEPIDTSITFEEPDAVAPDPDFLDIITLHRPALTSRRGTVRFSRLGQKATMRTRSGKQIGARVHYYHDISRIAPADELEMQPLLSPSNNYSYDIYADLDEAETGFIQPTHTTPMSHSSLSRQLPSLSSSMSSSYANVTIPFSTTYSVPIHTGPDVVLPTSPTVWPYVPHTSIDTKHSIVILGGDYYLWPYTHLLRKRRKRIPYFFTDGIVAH
T1 sequence 2: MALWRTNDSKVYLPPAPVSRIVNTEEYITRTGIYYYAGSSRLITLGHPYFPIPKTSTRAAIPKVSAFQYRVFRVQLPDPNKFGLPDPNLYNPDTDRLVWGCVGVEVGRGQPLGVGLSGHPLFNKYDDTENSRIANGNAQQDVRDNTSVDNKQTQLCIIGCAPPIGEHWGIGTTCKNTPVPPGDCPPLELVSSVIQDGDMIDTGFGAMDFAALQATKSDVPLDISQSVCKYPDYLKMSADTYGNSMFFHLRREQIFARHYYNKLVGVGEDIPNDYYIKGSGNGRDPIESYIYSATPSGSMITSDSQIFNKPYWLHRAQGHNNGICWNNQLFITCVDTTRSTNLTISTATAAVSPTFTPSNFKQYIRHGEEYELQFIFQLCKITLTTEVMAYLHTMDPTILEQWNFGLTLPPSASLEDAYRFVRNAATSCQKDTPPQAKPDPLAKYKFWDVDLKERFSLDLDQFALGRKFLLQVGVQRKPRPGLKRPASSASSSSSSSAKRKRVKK
The test is described as follows: ELISA on immobilized L1/L2-capsid, ascites 1:100. Background: An ELISA detects its analyte on a solid surface through an enzyme-linked reagent.

The next test concerns the target T2, HPV33 L1/L2-capsid (human papillomavirus type 33, UniProt P06418 1-467; P06416 1-499).
T2 construct: Capsid of co-expressed L1 and L2 from 293FT cells; The pseudovirus is the same capsid with a reporter plasmid; also called L1/L2-capsid of type 33; HPV33 pseudovirus
T2 sequence 1: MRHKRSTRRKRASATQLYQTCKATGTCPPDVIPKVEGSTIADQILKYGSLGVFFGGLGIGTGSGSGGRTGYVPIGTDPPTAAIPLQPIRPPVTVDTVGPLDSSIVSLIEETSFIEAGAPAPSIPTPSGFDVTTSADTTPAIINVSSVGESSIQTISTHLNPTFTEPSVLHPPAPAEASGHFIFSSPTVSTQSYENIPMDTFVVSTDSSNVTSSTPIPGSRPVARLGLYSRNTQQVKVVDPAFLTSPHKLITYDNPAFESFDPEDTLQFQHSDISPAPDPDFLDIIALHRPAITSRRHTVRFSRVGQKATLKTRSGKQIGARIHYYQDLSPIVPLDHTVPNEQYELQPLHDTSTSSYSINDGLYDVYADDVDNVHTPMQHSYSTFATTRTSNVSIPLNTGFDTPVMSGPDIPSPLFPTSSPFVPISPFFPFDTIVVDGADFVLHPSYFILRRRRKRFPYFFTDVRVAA
T2 sequence 2: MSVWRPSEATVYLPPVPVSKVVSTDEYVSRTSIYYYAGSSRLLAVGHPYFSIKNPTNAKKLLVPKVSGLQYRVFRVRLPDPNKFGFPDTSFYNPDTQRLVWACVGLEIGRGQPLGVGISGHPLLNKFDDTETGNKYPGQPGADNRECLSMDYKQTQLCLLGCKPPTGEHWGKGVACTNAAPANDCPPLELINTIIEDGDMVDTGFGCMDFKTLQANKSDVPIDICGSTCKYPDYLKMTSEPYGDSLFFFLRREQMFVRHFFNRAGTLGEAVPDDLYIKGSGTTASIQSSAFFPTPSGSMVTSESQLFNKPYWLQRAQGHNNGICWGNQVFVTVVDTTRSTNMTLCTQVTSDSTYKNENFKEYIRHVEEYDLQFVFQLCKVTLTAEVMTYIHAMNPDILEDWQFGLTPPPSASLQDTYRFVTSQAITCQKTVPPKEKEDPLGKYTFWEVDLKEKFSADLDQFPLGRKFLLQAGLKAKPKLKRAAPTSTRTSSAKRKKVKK
The test is described as follows: ELISA on immobilized L1/L2-capsid, purified antibody 250 ng/well.

Test [2] concerns the target T1, HPV51 L1/L2-capsid. The description is as above.

B1: monoclonal antibody 24B (antibody, V domains shown)
VH: EVQLQQSGTVLARPGASVKMSCKASVYSFPSNWMHWVKQRPGQGLEWIGAIYPGTGATRYNQKFKDKAKLTAVTSADTAYMELSSLTDEDSAVYYCTGYSLYWGQGTILTVSS
VL: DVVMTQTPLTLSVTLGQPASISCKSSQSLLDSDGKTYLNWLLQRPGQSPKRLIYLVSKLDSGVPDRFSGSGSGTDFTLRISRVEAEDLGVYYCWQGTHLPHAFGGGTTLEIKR
notes: Used as mouse ascites or as antibody purified from ascites; also called Mouse-Mouse hybridoma 24B (FERM BP-11305)
Take B1: in the test with HPV51 L1/L2-capsid [1], the binding result is on record as “binds”.

B2: monoclonal antibody 13B (antibody, V domains shown)
VH: DVQLQESGPGLVKPSQSLSLSCTVTGYSITSDSAWNWIRQFPGNKLEWMGYITFSGSTNYNPSLKSRLSITRDTSKNQFFLQLNSVTTEDTATYYCTGPFLDYWGQGTTLTVSS
VL: DVVMTQTPLSLPVSLGDQATISCRSSLSLVLSNRITYLQWYLQKPGQSPKLLIYKVSNRFSGVPDRFSGSGSGTDFTLKISRVEAEDLGVYFCSQSSHFPWTFGGGTKLEIKR
notes: Used as mouse ascites or as antibody purified from ascites; also called Mouse-Mouse hybridoma 13B (FERM BP-11304)
As for B2, the binding result in the test with HPV33 L1/L2-capsid and in the test with HPV51 L1/L2-capsid [2] was “binds” throughout.
